Laboratory results reported in the DeepSol protein solubility set.

assay: soluble on expression in E. coli; label from the status in PepcDB or PDB records

Sequence	soluble on expression in E. coli
MRKIVLLSQIVRPALSSARFVHTSTPLSWQKFENERHFEPGEDVMKRVWHGLSYDFRRWKRRFQEARKDAFKRRHPIAHMKHGTLDNEVFPYRAEIVIIGGGLSGSSTAFWLKERFRDEDFKVVVVENNDVFTKSSTMLSTGGITQQFSIPEFVDMSLFTTEFLRHAGEHLRILDSEQPDINFFPTGYLRLAKTDEEVEMMRSAWKVQIERGAKVQLLSKDELTKRYPYMNVDDVLLASLGVENEGTIDTWQLLSAIREKNITLGVQYVKGEVEGFQFERHRASSEVHAFGDDATADENKLRAQRISGVLVRPQMNDASARPIRAHLIVNAAGPWAGQVAKMAGIGKGTGLLAVPVPIQPRKRDVFVIFAPDVPSDLPFIIDPSTGVFCRQTDSGQTFLVGRTPSKEEDAKRDHSNLDVDYDDFYQKIWPVLVDRVPGFQTAKVKSAWSGYQDINTFDDAPVIGEHPLYTNLHMMCGFGERGVMHSMAAARAYAERIFDGAYINVNLRKFDMRRIVKMDPITEPCRL	not soluble
MHNLANLYRTGWPGGVEKDTQKALDLYQKMIDLDVPQGFYDMGAMIGNRAGVKNPATDGLTFLDKAASLGNPPALTELGKFYIYVAKKKDLGLAYTHCAASQGYAPASYELGAYYKIVEHNFPKALVYYQVSVSQGGKSAAFFLSRVFGSETPPASAMWYAPDEKLREAYYSIYKKLEADPLEHHHHHH	not soluble
SLLGQKSQRYKAEEGLQAQGEAPGLMDVQIPTAEEQKAASSSSTLIMGTLEEVTDSGSPSPPQSPEGASSSLTVTDSTLWSQSDEGSSSNEEEGPSTSPDPAHLESLFREALDEKVAELVRFLLRKYQIKEPVTKAEMLESVIKNYKNHFPDIFSKASECMQVIFGIDVKEVDPAGHSYILVTCLGLSYDGLLGDDQSTPKTGLLIIVLGMILMEGSRAPEEAIWEALSVMGLYDGREHSVYWKLRKLLTQEWVQENYLEYRQAPGSDPVRYEFLWGPRALAETSYVKVLEHVVRVNARVRISYPSLHEEALGEEKGV	soluble
MAEAASCARKGTKYAEGTQPFTVLIEGNIGSGKTTYLNHFEKYKNDICLLTEPVEKWRNVNGVNLLELMYKDPKKWAMPFQSYVTLTMLQSHTAPTNKKLKIMERSIFSARYCFVENMRRNGSLEQGMYNTLEEWYKFIEESIHVQADLIIYLRTSPEVAYERIRQRARSEESCVPLKYLQELHELHEDWLIHQRRPQSCKVLVLDADLNLENIGTEYQRSESSIFDAISSNQQPSPVLVSPSKRQRVAR	soluble
MGSDKIHHHHHHMSIAAEKISSEALFDLLEIFDNQPWMRDLHAELAELWNACETREEQHLLKFLLKKFFLLDAQKEKLALYGISKKIQEWGLNPASTWIVAAANKDEIDGSSAGLQKLKNKINPIEEWHSRFISNIPSASNKVKSGDTIILFDDFIGTGGKMIKKTAWLKRLVTKFDPRNLKFYYVSFSGMQFGLTSLAAETACTTYAHFIFTKAISEALPEQEALTLISAMKSIEERLAVRHKNKQLNDYSLGYEKSEALYCGQNDNCPNNVFPVFWWPSMKNGNNRKTLLKRAG	not soluble
MGSDKIHHHHHHMIGQSLFIRGARGVTLTPSGERYFQDVTTILHNLMLATEKAADKSPKDSLYIHSSPSFGLLWLLPRLESFKEKFPMIQVNLSCSYENLHFTRDKIDIDIRHGLPNWTGVEIRTIRNEKLEVLASPKLLERSPVHKPQDLLKKELILSRSTLVTWPQWFAHQGLSIPEFPYTLSFDRSYMSLEAATHGLGFVLESNLLTQNYLESGKLVRVFADELSIPISAHHLVYPRTHQFIPKIELFLNWIHDELAG	not soluble
MISEKPAAKRIQSGGCAIHCQDCSISQLCIPFTLNESELDQLDQIIERKKPIQKGQELFKAGDELRSLYAIRSGTIKSYTITEQGDEQITAFHLAGDLVGFDAITGDQHPSFAQALETSMVCEIPYEILDDLSGKMPKLRQQIMRLMSNEIKGDQEMILLLSKKNAEERLAAFLYNLSTRFSQRGFSPREFRLTMTRGDIGNYLGLTVETISRLLGRFQKSEILSVKGKYITILNHAELMELAGVSKESK	soluble
MAHHHHHHMAITLPKLKYALNALSPHISEETLSFHYNKHHAGYVNKLNGLIKDTPLANKSLTDILKESTGAIFNNAAQIWNHSFYWDSMGPNCGGEPHGEIKEKIQEDFGSFNNFKDQFSNVLCGHFGSGWGWLALNKNNKLVILQTHDAGNPIKENTGIPILTCDVWEHAYYIDYRNDRLSYVKAWWNLVNWNFANENLKNALNK	soluble
MSLANAFGKEKNIKEFYALKGVSFEISKGECVGIIGHNGAGKSTLLKLLTGVAFPTSGEIEINGRLASMLELGSGFNPELTGMENIYFNGSLNGLTKEEIDGKLKDILEFADIGNFIEQPVKNYSSGMFARLAFAVAINVDPDILIVDEILSVGDVGFQVKCMEKFNEFKKKGKTILYVSHGLGTVKKFCDRAIWLQKGEVVDDGNSVIVVERYYNLNFNPANIEQLKDHKSDIINSIAVKSNTKNVEYLEKLDLEVEYDLISNDLKDPNIVLEFRKTDYEPGTTRGNDQFVCGINSKDNIKNIPFNLGVNKLKVSLNKVNLVAGVYYIDFVLRDGEEEVYRKINGYSFTLNDKYRGEGFLILGHSWGNEGHHHHHH	not soluble
MAVQLLENWLLKEQEKIQTKYRHLNHISVVEPNILFIGDSIVEYYPLQELFGTSKTIVNRGIRGYQTGLLLENLDAHLYGGAVDKIFLLIGTNDIGKDVPVNEALNNLEAIIQSVARDYPLTEIKLLSILPVNEREEYQQAVYIRSNEKIQNWNQAYQELASAYMQVEFVPVFDCLTDQAGQLKKEYTTDGLHLSIAGYQALSKSLKDYLY	soluble
MSLHPEQIHNAINCLCLAATATVAGAMISMGCTTGQRSNSRNSRKSSRSNKSKRSQRSKRRSAQRKKSSSRRKKKLRKEKSRKSQRSKRKKRESERRKKERSKRIARSKKSIKRDRERDSDSSRIKKSGSKRNLEKSNRDDSKRKISKDKNSRRSSQEKSHKYSEPLFIPPVDYDDRDRSLKKKKSVRDNNEEGSRRSSSRDKSKDMKEKSQQSKKDSSRKSKKQQKSEKKKSAEQDNRSDPEDDREAEAPNWRRRRRAKEDQNVKARKTKKVKKNEEVPSKKSSKMSKRSKRSTDENLETAKSSRILKDSEPKSSRSSVTSQKIDSSRGMSKLRADALKRMEPKLLVSPNANSDRFQCNEKGCQKGQCSSEARYAQNVRRSASQKSLRAPKENKLKDGSAKTPKVSSTTTPPVDTMRTPTQEPRSIYIETGKSTYGEASKTSGNNARSVYLADPVSAPKAYSVTPQKSTKTPSERKSEKNLEKKASKKSIKSSRSGIQQREVTKTSSKHSSKHSKAPSSKKSSKKSSKKEQKSRALSNSSSKKSVGSHRNKSNR	not soluble
MLARGKTNLKIEEIRMHKHHEIHRVKPLMPALCRIRQGKKVINWETHTLTVDNNQIILFPCGYEFYIENYPEAGLYLAEMLYLPIDLIESFQKLYTVTDQIRNKTSFFLPQNPELIYCWEQLKTSVSRGFSTKIQEHLAMGVLLSLGVNHVNHLLLSYSKQSLISRCYNLLLSEPGTKWTANKVARYLYISVSTLHRRLASEGVSFQSILDDVRLNNALSAIQTTVKPISEIARENGYKCPSRFTERFHNRFNITPREIRKASRE	soluble
MGSDKIHHHHHHKESGSLLNLLTDAEIERTEKIVISGNGLEEKDFAVLKAMLIRHALREVDIENTSTRAITERAFEGCSNLSAIKLPKYLVNTGWYAFEDCSGLMDIELPVSVETIANSFRGCSSLTSITLGRRVKSLDSQSFYLCSNLREVHCKGSIPPSCKQDSFKGLYETCTLYVPEGCKRDYTFADGWLNFGNIREEYVEPALSLRVNLEGGTFAWQLYPLYDGNGGIIVNHFYPGQDYLIDVEKGETIVFHIAEENTYFSNWKIDTILLNGEDITSQVTENDLLYLNIDRDSKLEIVMKDLSVTSNDVIENPQDIKISTLDNKVLIQNITTGERVNVYNVLGVLVHSVVVEAMDYEVQLPKGEIYLIQIGKKTVKLKL	not soluble
NRNFSIQMKGTFTYAHNEVLKYDEAAGLRPALSQVGKSLNSIWGYVADGLYIDEADIANNPQSTIGNIAIAPGDVKYVDQPDASGNYDGKITSDDRVVLGYPTIPEIIYGFGPSITWKNWDFSFFFQGQARVSFMMSGFEPFGTQSKNNVLKWISDDHWSKDNQNPNARYPRLTQYNNNNNTASSSYWLRNASFLKLRNAEIGYRFKWARIYVNGSNLLTFSPFKLWDPEMGGGAGMKYPTQRTYNVGIQLTFK	not soluble
MGSSHHHHHHSSGLVPRGSHMASNPNDDMPVDKILEAELISDPKVEQVVPFEQVNENDPVSNICKAADRQLVTLVEWAKRIPHFSSLPLEDQVILLRAGWNELLIASFSHRSIDVKDSILLASGLHVHRHSAHQAGVGPIFDRVLTELVSKMRDMMMDKTELGCLRAVVLFNPDVKNPSDSAHIESLREKVYASLEAYCRSKYPDQPGRFAKLLLRLPALRSIGLKCLEHLFFFKLIGDTPIDKFLMNMLETTSDFPV	soluble
MATTIPGSLVNKTKKFFMGMPAPTGYVPGVGRGATGFTTRSDIGPARDPTELPEAGPVGPSPQGASSSSAPPAKRARDDDGDGEDLNEANYDEFSGYSGSLFSKDPYDQEDEDADRIYNEVDDRLDERHKERREKKYKELVELFHKDRPKIQQGFQDLKRQLAEVTEDEWQAIPEVGDMRNKAKRNARAEKFTPVPDSIIAMNMNYGQMSHSIDSGNGLTTPFASGFMSTLGGGGGAAAAGAKSGIMTPGWKSDIPSSGTSTDLDLVKIGQARNKIMDMQLTQVSDSVTGQTVVDPKGYLTDMQSIIPQMGGDLQDIKKARMLLKSVRETNPRHPPAWVASAVLEEQAGKLQTARNFIMEGCEKIKNSEELWLHAIRLHPPELGRSIVANAVRSCPHSVRLWCKASDLEQDLKDKKKVLRKALEQIPSSVKLWKAAVELEDPEDARILLTRAVECCSSSTEMWLALARLETYENARKVLNKAREHIPTDRHIWLSAARLEETRGQKDMVDKIVAKAMSSLKVNQVEINRDQWLKDAVDAEMAKCPITCQAIIRNVIGLGVEDEDKRTTWLADAENFEKEEAFTCVRTVYAIALKEFSRKRSIWDAAIHFEREHGSLDEHEAILLKACETVPEVEDYWLMLAKLRFVNKRVGEARDTLMSAFEKHGHQSEKIWLAATKIEIETDQFDTARGLFGKARAKAPSARVWMKNAHFEWCLGNVEEAKRLCEECIQKYDDFHKIYLVLGQVLEQMNDVHGARLAYTQGIRKCPGVIPLWILLVRLEEKAGQIVKARVDLEKARLRNPKNDDLWLESVRFEQRVGCPEMAKERMSRALQECEGSGKLWAEAIWMEGPHGRRAKSIDALKKCEHNPHVLIAAARLFWSERKIKKAREWFVRAVNLDPDNGDAFANFLAFEQIHGKEEDRKSVFKKCVTSEPRYGDLWQSVSKDPINWRRTTEEILQLATQKIKVPT	not soluble
MSNNNLSVISLVSIGEHPTSRRPRRAEQDARAIELGLKLVGDNLQTLHAGELSDDASQQTALRSYLGMGLAEINLLEMPENADAVLVIAEYLKQQKIDIILTGVCAESGESSGMLPYLLAEQLGMAMVTSIAEILSIDEVNKQAEVLQALPRGQRRKLKVDLPFIASVDMAAALPRQSAFGPAMRGQFEATLGANFTDEESSTWQTADAKKRPKRLKIIKAKTAADRFKAATAKASGGGGKVVHGVEESAQAILDLLIEEGLV	not soluble
MTDTRVLAVANQKGGVAKTTTVASLGAAMVEKGRRVLLVDLDPQGCLTFSLGQDPDKLPVSVHEVLLGEVEPNAVLVTTMEGMTLLPANIDLAGAEAMLLMRAGREYALKRALAKFSDRFDVVIIDCPPSLGVLTLNGLTAADKAIVPLQCEMLAHRGVGQFLRTVADVQQITNPNLRLLGALPTLYDSRTTHTRDVLLDVADRYDLQVLAPPIPRTVRFAEASASGSSVMAGRKNKGAVAYRELAQALLKHWKTGRPLPTFTVDL	soluble
MPVAKDNQFWDALMENKVAKKLIKKHKCKAKCENIDDLANRYEVSKQEVEKVFKIFQLMDDDGSGTISSSEVAKMLNELGIDVSPKVVQAVMRSSDVSGDGQIDFEEFLAAVTSKIKLSTVKADVQLMLSKIDNNPEKVVSWGIEHLMIIFCEEPLKSCYYRLALTAGCTIICGYLWF	not soluble
